Positions count from the first letter of the chain named. Names and notes keep the numbering of the source.
Columns and labels:
human STEAP-1 [1] = molecular target: T1, human STEAP-1 (human, UniProt Q9UHE8 1-339); assay: Scatchard analysis on 293 STEAP-1 NT LB50 cells
T1 construct: also called Six Transmembrane Epithelial Antigen of the Prostate

human STEAP-1 [2] = molecular target: T1, human STEAP-1; assay: Scatchard analysis; the sentence names no reference (the preceding sentences compare with chimeric 120 IgG)
Excerpt: (§1) IgG Production and Affinity Determination -IgG was purified with Protein G affinity chromatography.
Although the 120-graft IgG bound specifically to the STEAP-1 expressing cells, the FACS signal observed for the 120-graft IgG was smaller than that observed for the chimeric 120 IgG indicating a loss in binding affinity. Phage displaying the 120-graft Fab also generated a FACS signal that was only observed on STEAP-1 expressing cells. This shift was less than that observed for the chimeric 120 IgG.

human STEAP-1 [3] = molecular target: T1, human STEAP-1; assay: Scatchard analysis on 293-LB50 cells (exogenous STEAP-1), average
Excerpt: (§2) JgG was purified with Protein G affinity chromatography.

human STEAP-1 [4] = molecular target: T1, human STEAP-1; assay: Scatchard analysis on 293.LB50 cells (exogenous STEAP-1), Assay 736; displacement plot 26G and Scatchard plot 26H
Excerpt: as §2

human STEAP-1 [5] = molecular target: T1, human STEAP-1; assay: Scatchard analysis on 293.LB50 cells (exogenous STEAP-1), Assay 735; displacement plot 26E and Scatchard plot 26F
Excerpt: as §2

human STEAP-1 [6] = molecular target: T1, human STEAP-1; assay: Scatchard analysis on LNCaP.BR cells (endogenous STEAP-1), Assay 733; displacement plot 25E and Scatchard plot 25F
Excerpt: as §2

human STEAP-1 [7] = molecular target: T1, human STEAP-1; assay: Scatchard analysis on LNCaP.BR cells (endogenous STEAP-1), Assay 734; displacement plot 25G and Scatchard plot 25H
Excerpt: as §2

human STEAP-1 [8] = molecular target: T1, human STEAP-1; assay: Scatchard analysis on LNCaP-BR cells (endogenous STEAP-1), average
Excerpt: as §2

[9] = molecular target: T2, cynomolgus monkey STEAP-1 (cynomolgus monkey, UniProt Q9UHE8 1-339 (human entry)); assay: FACS on cells expressing cynomolgus STEAP-1 (panel title CYNO, cell line not named), PE detection
T2 construct: The cells carrying cyno STEAP-1 are not described; also called cyno STEAP-1

human STEAP-1 [10] = molecular target: T1, human STEAP-1; assay: Scatchard analysis on 293-LB50 and LNCaP.BR cells
Excerpt: as §2

human STEAP-1 [11] = molecular target: T1, human STEAP-1; assay: Scatchard analysis on 293.LB50 cells (exogenous STEAP-1)
Excerpt: as §1
When expressed as an IgG, 120.v24 produced a similar FACS shift to the chimeric 120 antibody at all concentrations tested.

mouse STEAP-1 [12] = molecular target: T3, mouse STEAP-1 (mouse, UniProt Q9CWR7 1-339); assay: FACS on cells expressing mouse STEAP-1 (panel title MOUSE, cell line not named), PE detection; key in Figure 7A: hu 24-67
T3 construct: The cells carrying mouse STEAP-1 are not described in the text; also called STEAP-1 from mouse

[13] = molecular target: T2, cynomolgus monkey STEAP-1; assay: Scatchard analysis on 293 cells transiently expressing cyno Steap1; side note: Same Affinity for human & cyno
human STEAP-1 [14] = molecular target: T1, human STEAP-1; assay: Scatchard analysis on 293.LB50 cells (exogenous STEAP-1), Assay 738; displacement plot 26C and Scatchard plot 26D
Excerpt: as §2

human STEAP-1 [15] = molecular target: T1, human STEAP-1; assay: Scatchard analysis on LNCaP.BR cells (endogenous STEAP-1), Assay 739; displacement plot 25A and Scatchard plot 25B
Excerpt: as §2

human STEAP-1 [16] = molecular target: T1, human STEAP-1; assay: Scatchard analysis on LNCaP.BR cells (endogenous STEAP-1), Assay 740; displacement plot 25C and Scatchard plot 25D
Excerpt: as §2

human STEAP-1 [17] = molecular target: T1, human STEAP-1; assay: Scatchard analysis on 293 cells transiently expressing human Steap1
Excerpt: as §2

human STEAP-1 [18] = molecular target: T1, human STEAP-1; assay: Scatchard analysis on 293.LB50 cells (exogenous STEAP-1), Assay 737; displacement plot 26A and Scatchard plot 26B
Excerpt: as §2

human STEAP-1 [19] = molecular target: T1, human STEAP-1; assay: Scatchard analysis on PC3-PS5.4 cells (exogenous STEAP-1)
human STEAP-1 [20] = molecular target: T1, human STEAP-1; assay: Scatchard analysis on LNCaP-BR cells (endogenous STEAP-1)
mouse STEAP-1 [21] = molecular target: T3, mouse STEAP-1; assay: FACS on cells expressing mouse STEAP-1 (panel title MOUSE, cell line not named), PE detection; key in Figure 7A: 120
mouse STEAP-1 [22] = molecular target: T3, mouse STEAP-1; assay: FACS on cells expressing mouse STEAP-1 (panel title MOUSE, cell line not named), PE detection; key in Figure 7A: 120 chi

T3 sequence (Q9CWR7 other isoform, or with tags, fused parts or gaps): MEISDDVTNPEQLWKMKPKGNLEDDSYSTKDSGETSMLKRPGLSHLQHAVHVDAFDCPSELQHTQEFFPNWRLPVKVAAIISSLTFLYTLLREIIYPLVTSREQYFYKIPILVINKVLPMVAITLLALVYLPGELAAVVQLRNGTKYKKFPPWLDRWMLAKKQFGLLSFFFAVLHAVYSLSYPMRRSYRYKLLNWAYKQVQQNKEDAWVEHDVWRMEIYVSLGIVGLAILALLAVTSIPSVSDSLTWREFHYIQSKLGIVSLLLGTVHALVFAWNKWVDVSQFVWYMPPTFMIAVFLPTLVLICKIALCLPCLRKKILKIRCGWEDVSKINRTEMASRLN
T2 sequence (Q9UHE8 other isoform, or with tags, fused parts or gaps): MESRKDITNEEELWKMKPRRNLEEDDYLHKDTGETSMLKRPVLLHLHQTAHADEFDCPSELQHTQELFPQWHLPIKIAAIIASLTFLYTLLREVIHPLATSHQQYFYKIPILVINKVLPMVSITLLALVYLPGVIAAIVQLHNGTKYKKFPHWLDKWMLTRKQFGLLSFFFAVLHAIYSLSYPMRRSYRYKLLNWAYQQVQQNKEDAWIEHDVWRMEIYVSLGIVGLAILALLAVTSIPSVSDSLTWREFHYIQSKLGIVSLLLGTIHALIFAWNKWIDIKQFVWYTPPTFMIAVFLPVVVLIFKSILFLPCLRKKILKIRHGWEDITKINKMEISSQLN
T1 sequence (Q9UHE8 other isoform, or with tags, fused parts or gaps): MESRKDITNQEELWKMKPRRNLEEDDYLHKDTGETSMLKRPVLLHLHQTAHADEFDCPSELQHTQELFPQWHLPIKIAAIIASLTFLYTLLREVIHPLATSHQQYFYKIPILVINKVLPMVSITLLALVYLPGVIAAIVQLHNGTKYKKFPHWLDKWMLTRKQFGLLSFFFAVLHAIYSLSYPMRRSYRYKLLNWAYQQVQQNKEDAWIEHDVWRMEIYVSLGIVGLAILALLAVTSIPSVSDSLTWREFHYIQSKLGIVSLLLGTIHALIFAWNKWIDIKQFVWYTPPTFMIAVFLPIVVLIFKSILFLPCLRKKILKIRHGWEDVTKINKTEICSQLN

B1: 120 graft IgG (antibody, V domains shown)
VH: EVQLVESGGGLVQPGGSLRLSCAASGYSITSDYAWNWVRQAPGKGLEWVGYISNSGSTSYNPSLKSRFTISRDNSKNTLYLQMNSLRAEDTAVYYCARERNYDYDDYYYAMDYWGQGTLVTVSS
VL: DIQMTQSPSSLSASVGDRVTITCKSSQSLLYRSNQKNYLAWYQQKPGKAPKLLIYWASTRESGVPSRFSGSGSGTDFTLTISSLQPEDFATYYCQQYYNYPRTFGQGTKVEIKR
notes: Direct CDR graft of murine 120 onto the human kappa I / VH subgroup III consensus, expressed as IgG; also called graft 120
**Q.** For B1, which Kd (human STEAP-1 [1]) is on record?
**A.** 260 nM

**Q.** And the “fold loss in binding affinity” value (human STEAP-1 [2])?
**A.** ~50 fold

B2: anti-STEAP-1 antibody SGIV (antibody, name in Kabat numbering, V domains shown)
VH: B1 VH with A24V
VL: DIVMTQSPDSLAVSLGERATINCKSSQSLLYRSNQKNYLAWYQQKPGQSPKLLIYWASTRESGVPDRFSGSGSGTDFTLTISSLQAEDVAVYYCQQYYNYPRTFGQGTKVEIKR
notes: Described as a revised light chain variant of the 120.v24 antibody, expressed as IgG; also called Simmons IV; SGIV variant
**Q.** With B2 as the binder, how does the Kd (human STEAP-1 [3]) read?
**A.** 2.8 nM

**Q.** And the Kd (human STEAP-1 [4])?
**A.** 2.8 nM

**Q.** What about the Kd (human STEAP-1 [5]) of the same binder?
**A.** 2.7 nM

**Q.** What about the Kd (human STEAP-1 [6]) of the same binder?
**A.** 2.3 nM

**Q.** What about the Kd (human STEAP-1 [7]) of the same binder?
**A.** 1.9 nM

**Q.** What about the Kd (human STEAP-1 [8]) of the same binder?
**A.** 2.1 nM

B3: 120v.78 (antibody, name in Kabat numbering, V domains shown)
VH: B1 VH with L79F
VL: B1 VL
**Q.** Which Kd (human STEAP-1 [1]) does the source give for B3 here?
**A.** 36 nM

B4: humanized anti-STEAP-1 120v.24 (IgG) (antibody, name in Kabat numbering, V domains shown)
VH: B1 VH with A24V
VL: B1 VL
notes: also called humanized 120.v24; humanized version 24
**Q.** Which results are given for B4?
**A.** fold improvement in Kd over the 120 chimera and the original murine M2-120.545 (human STEAP-1 [1]): 2 fold; binding result [9]: binds; fold binding affinity relative to the SGIV variant (human STEAP-1 [10]): ~1.5 fold; Kd (human STEAP-1 [11]): 2.2 nM; sites per cell (human STEAP-1 [11]): 264000 sites per cell; binding result (mouse STEAP-1 [12]): no binding

B5: Original Thio 120V24 (antibody, V domains shown)
VH: B1 VH with A24V
VL: DIQMTQSPSSLSASVGDRVTITCKSSQSLLYRSNQKNYLAWYQQKPGKAPKLLIYWASTRESGVPSRFSGSGSGTDFTLTISSLQPEDFATYYCQQYYNYPRTFGQGTKVEIK
modifications: One engineered free cysteine per chain pair, taken to lie in a constant region and so not in these letters. paragraph 175 calls the antibody a thio-LC variant (V205C Kabat). The site for lot PUR 12813 is not stated at the results.
notes: also called orig thio (PUR 12813); Thio Mab
**Q.** Which Kd [13] does the source give for B5 here?
**A.** 1.1 nM

**Q.** And the Kd (human STEAP-1 [3])?
**A.** 1.9 nM

**Q.** What about the Kd (human STEAP-1 [14]) of the same binder?
**A.** 2 nM

**Q.** And the Kd (human STEAP-1 [15])?
**A.** 1.1 nM

**Q.** And the Kd (human STEAP-1 [16])?
**A.** 1.7 nM

**Q.** And the Kd (human STEAP-1 [8])?
**A.** 1.4 nM

**Q.** And the Kd (human STEAP-1 [17])?
**A.** 1.4 nM

**Q.** And the Kd (human STEAP-1 [18])?
**A.** 1.7 nM

B6: murine anti-STEAP-1 MAb 120.545 (antibody, V domains shown)
VH: DVQVQESGPGLVKPSQSLSLTCTVTGYSITSDYAWNWIRQFPGNKLEWMGYISNSGSTSYNPSLKSRISITRDTSKNQFFLQLISVTTEDTATYYCARERNYDYDDYYYAMDYWGQGTTLTVSA
VL: DIVMSQSPSSLAVSVGEKVTMSCKSSQSLLYRSNQKNYLAWYQQKPGQSPKLLIYWASTRESGVPDRFTGSGSGTDFTLTISSVKAEDLAVYYCQQYYNYPRTFGGGTKVEIK
notes: also called murine 120
**Q.** For B6, which Kd (human STEAP-1 [19]) is on record?
**A.** 17.5 nM

**Q.** Does B6 bind [9]?
**A.** binds

**Q.** What about the Kd (human STEAP-1 [20]) of the same binder?
**A.** 1.5 nM

**Q.** What about the Kd (human STEAP-1 [11]) of the same binder?
**A.** 4.7 nM

**Q.** What about the sites per cell (human STEAP-1 [11]) of the same binder?
**A.** 301000 sites per cell

**Q.** Does B6 bind (mouse STEAP-1 [21])?
**A.** no binding

B7: 120 chimera (antibody, V domains shown)
VH: B6 VH
VL: B6 VL
notes: If that entry holds a murine constant part, only its variable part applies here; also called chimera 120; chimeric 120 IgG
**Q.** B7 was tested. Which Kd (human STEAP-1 [19]) did it give?
**A.** 9.9 nM

**Q.** Does B7 bind [9]?
**A.** binds

**Q.** What about the Kd (human STEAP-1 [20]) of the same binder?
**A.** 0.9 nM

**Q.** What about the Kd (human STEAP-1 [11]) of the same binder?
**A.** 4.9 nM

**Q.** What about the sites per cell (human STEAP-1 [11]) of the same binder?
**A.** 253000 sites per cell

**Q.** Does B7 bind (mouse STEAP-1 [22])?
**A.** no binding

Source: US20090280056A1 (Genentech, published 2009)
